The values below come from patent publication US20220288204A1, “DOSAGE AND ADMINISTRATION OF ANTI-ERBB3 (HER3) MONOCLONAL ANTIBODIES TO TREAT TUMORS ASSOCIATED WITH NEUREGULIN 1 (NRG1) GENE FUSIONS” (ELEVATION ONCOLOGY, INC., priority 2021, published 2022).

Common to all, as to type: cell-based, human
Test [1] deals with NRG1-β1-stimulated MCF-7 cells. In words: NRG1-β1-stimulated growth of MCF-7 cells. The procedure: MCF-7 cells were treated with the indicated concentrations of NRG1-b1 for 10 minutes, and then cell extracts were prepared and subjected to Western blotting for the indicated phosphorylated (p) or total (t) proteins (FIG. 2A). […] Data were analyzed by nonlinear regression using GraphPad Prism 8. There were four replicates of each condition and data represent the mean±SD. […] Cells were counted on the days indicated on the graph. Results represent the mean±SD of duplicates of each condition in one representative experiment. MDA-MB-175-VII (FIG. 2D) and LUAD-0061AS3 (FIG. 2E) cells were treated with the indicated concentrations of inhibitors for 48 hours, and then caspase 3/7 enzymatic activity was measured in cell homogenates. Carfilzomib (20S proteasome inhibitor) was used as a positive control for apoptosis. […]
For the time-course experiments, cells were plated at a density of 5,000 (HCC-95) or 10,000 (all others) cells per well in 12-well tissue culture plates, and then treated 24 hours later (time 0) with the respective agents. […] Cells were trypsinized and counted at the relevant time-point shown on the graphs. […] AlamarBlue is a cell permeable […] dye that is reduced when it enters the mitochondria and emits fluorescence at a different wavelength (Gloeckner H, J. Immunol. Methods 2001; 252:131-8). […]

The test system of another test is HCC-95 cells. In words: Time-course growth by cell counting. To be noted: lowest antibody concentration. The procedure:
(§1) Expression of […] (FIG. 1A) or SLC3A2-NRG1 (FIG. 2B) fusions in MDA-MB-175-VII and LUAD-0061AS3 cells, respectively, was determined by RT-PCR. The HBECp53 (NRG1 fusion negative) and HBECp53-SLC3A2-NRG1 cells were used as negative and positive controls, respectively. […] Viability results represent the mean±SEM of 2-5 independent experiments in which each condition was assayed in triplicate determinations. Viability data were analyzed by nonlinear regression and the IC50 values for growth inhibition and the 95% confidence interval were determined with GraphPad Prism 8. […] Results represent the mean±SD for one experiment in which each condition was assayed in duplicate.
(§2) For the time-course experiments, cells were plated at a density of 5,000 (HCC-95) or 10,000 (all others) cells per well in 12-well tissue culture plates, and then treated 24 hours later (time 0) with the respective agents. […] Cells were trypsinized and counted at the relevant time-point shown on the graphs. For dose-response studies, cells were plated at a density of 7,500-10,000 cells in white clear-bottom 96-well plates in a volume of […] complete growth media and […] chemicals added at 10× concentration (to achieve 1× concentration) in a final volume of […]. After 96-hour incubation, […] AlamarBlue cell viability reagent was added to achieve a final concentration of 10%. AlamarBlue is a cell permeable […] dye that is reduced when it enters the mitochondria and emits fluorescence at a different wavelength (Gloeckner H, J. Immunol. Methods 2001; 252:131-8). Fluorescence was measured (excitation, 530 nm and emission, 585 nm) using a […] Spectramax M2 Fluorescence Plate Reader, as described previously (Somwar R, J. Biomol. Screen 2009; 14:1176-84). In each experiment, background fluorescence was determined in cells treated with […] of the 20S proteasome inhibitor, carfilzomib, which is toxic to most cells at high concentrations, and was subtracted from all values. There were 3-4 replicates of each condition. Relative IC50 values and 95% confidence interval values were determined by nonlinear regression analysis using GraphPad Prism 8 software using either a variable slope model or in cases where inhibition was only partial, a three-parameter fit was used. […] Each condition was assayed in triplicate in 2-5 independent experiments.
(§3) In these experiments, the MDA-MB-175 and LUAD-0061AS3 cell lines, isogenic HBECp53 cells ectopically expressing a CD74-NRG1 fusion, and the NRG1-amplified lung cancer cell line, HCC-95 (FIGS. 1E-H) were used. […] Afatinib sensitivity of HCC-95 cells was not examined in this study.

Another test deals with HBECp53-CD74-NRG1 cells. In words: Time-course growth by cell counting. To be noted: highest concentration of seribantumab. How it is done: as §1, §2, §3
A further test relates to MDA-MB-175-VII cells. The test is described as follows: Time-course growth by cell counting. How it is done: as §1, §2, §3

B1: seribantumab: anti-ERBB3 (HER3) fully human monoclonal antibody; heavy and light chains SEQ ID NOs: 12 and 13 (antibody)
heavy: EVQLLESGGGLVQPGGSLRLSCAASGFTFSHYVMAWVRQAPGKGLEWVSSISSSGGWTLYADSVKGRFTISRDNSKNTLYLQMNSLRAEDTAVYYCTRGLKMATIFDYWGQGTLVTVSSASTKGPSVFPLAPCSRSTSESTAALGCLVKDYFPEPVTVSWNSGALTSGVHTFPAVLQSSGLYSLSSVVTVPSSNFGTQTYTCNVDHKPSNTKVDKTVERKCCVECPPCPAPPVAGPSVFLFPPKPKDTLMISRTPEVTCVVVDVSHEDPEVQFNWYVDGVEVHNAKTKPREEQFNSTFRVVSVLTVVHQDWLNGKEYKCKVSNKGLPAPIEKTISKTKGQPREPQVYTLPPSREEMTKNQVSLTCLVKGFYPSDIAVEWESNGQPENNYKTTPPMLDSDGSFFLYSKLTVDKSRWQQGNVFSCSVMHEALHNHYTQKSLSLSPGK
light: QSALTQPASVSGSPGQSITISCTGTSSDVGSYNVVSWYQQHPGKAPKLIIYEVSQRPSGVSNRFSGSKSGNTASLTISGLQTEDEADYYCCSYAGSSIFVIFGGGTKVTVLGQPKAAPSVTLFPPSSEELQANKATLVCLVSDFYPGAVTVAWKADGSPVKVGVETTKPSKQSNNKYAASSYLSLTPEQWKSHRSYSCRVTHEGSTVEKTVAPAECS
For B1, in test [1] (pretreated 2 μmol/L seribantumab 1 hour, 10 ng/mL NRG1-β1, up to 10 days), the “NRG1-β1-stimulated growth, temporal study” value was “prevented NRG1-β1-stimulated growth completely”. For the same molecule, the “growth (viability) of NRG1-β1-stimulated cells” value in test [1] (seribantumab 0.125 μmol/L (lowest used), NRG1-β1 0-5 ng/mL, 96 hours) was “largely suppressed growth”. Besides, the “cell growth over time” value is “growth completely inhibited” with HCC-95 cells; “almost complete inhibition of growth” with HBECp53-CD74-NRG1 cells; “growth was blocked for the entire 12-day period” in the test on MDA-MB-175-VII cells (seribantumab 1 and 10 μmol/L, 12 days). Besides, the “time at which growth was slowed after start of treatment” value in the test on MDA-MB-175-VII cells (seribantumab 0.1, 1, 10 μmol/L) was determined as 24 h.
